The target in assay [1] is T1, recombinant human TIM-3-Fc fusion protein (huTIM-3-Fc) (human, UniProt Q8TDQ0 22-200).
T1 construct: range 22-200; Bought from R&D Systems (NS0-derived); Deglycosylated for HDX-MS; also called recombinant human Fc-TIM-3 chimera; TIM-3 IgG1 Fc Chimera; not shown: IgG1 Fc of the bought chimera
Kind of assay: competition ELISA on coated Fc-TIM-3, competitor galectin-9.

Assay [2] addresses T2, Full length human PD1 (huPD1) on cells (human, UniProt Q15116 25-288). Kind of assay: cell-based or functional assay.
Assay [3] deals with T2, Full length human PD1 (huPD1) on cells. Kind of assay: flow cytometry, PHA-stimulated Jurkat cells. (In general: Flow cytometry measures light scatter and fluorescence of single cells or particles in a stream.)
Method: Jurkat cells were stimulated overnight with 20 ng/ml of PHA, harvested, washed, and checked for viability. The cells were then incubated at 6-10° C. for 45-60 minutes with various concentrations of test antibodies, washed and incubated at 6-10° C. for 45-60 minutes with FITC-labeled goat anti-human IgG. The cells were washed and fixed with BD Cytofix, refrigerated overnight and analyzed on a MACSQuant flow cytometer. The percentage of PD-1 positive cells at each antibody concentration was plotted vs log of the antibody concentration and EC₅₀ values were generated in Prism.
Assay [4] deals with T3, Extracellular domain of cyno PD1 (cPD1-ECD) (Macaca fascicularis (cynomolgus)).
T3 construct: Expressed with a hexahistidine tag or as Fc fusion; also called cynoPD1-ECD; cynoPD-1-ECD
T3 chain: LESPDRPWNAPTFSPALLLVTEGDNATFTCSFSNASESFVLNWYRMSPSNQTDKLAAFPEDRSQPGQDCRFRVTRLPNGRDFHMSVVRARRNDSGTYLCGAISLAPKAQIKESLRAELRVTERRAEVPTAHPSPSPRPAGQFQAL
The assay can be described thus: SPR ProteOn, cynoPD1-ECD; RANGE low replicate.
Method: (§1) Affinity measurements using Surface Plasmon Resonance (SPR) were performed using a ProteOn XPR36 system. A biosensor surface was prepared by coupling a mixture of anti-IgG Fc modified alginate polymer layer surface of a GLC chip using the manufacturer instructions for amine-coupling chemistry. […] The collected data were processed and fitted to a Langmuir 1:1 binding model. The result for each mAb was reported in the format of kₒₙ (On-rate), koff (Off-rate) and KD (equilibrium dissociation constant).
(§2) STDEV were calculated for 3 or more replicates generated for human and cyno proteins. If less than 3 replicates were calculated, RANGE was indicated. RANGE is defined as the low and high values for the replicates tested. For samples in the Table 10 or Table 11 without value indicated in RANGE or STDEV, only one experiment was performed.

For assay [5], the target named is T3, Extracellular domain of cyno PD1 …. Kind of assay: SPR ProteOn, captured mAb, cynoPD1-ECD analyte.
Method: as §1, §2
The target is the same in assay [6]. Kind of assay: SPR ProteOn, cynoPD1-ECD; RANGE high replicate; RANGE high replicate.
Method: as §1, §2
Assay [7] addresses T4, Extracellular domain of human PD1 (huPD1-ECD) (human, UniProt Q15116 25-169, biotinylated in the ligand inhibition assay (sites not given)).
T4 construct: Expressed with a hexahistidine tag or as Fc fusion; also called biotinylated PD-1
The assay can be described thus: SPR ProteOn, captured mAb, huPD1-ECD analyte.

Assay [8] has as its target T4, Extracellular domain of human PD1 …. The assay can be described thus: MSD ligand inhibition, competitor coated cynoPDL1-ECD.
In assay [9] the target is T3, Extracellular domain of cyno PD1 …. Kind of assay: SPR ProteOn, cynoPD1-ECD; RANGE high replicate.
Assay [10] shares this target. Kind of assay: SPR ProteOn, captured mAb, cynoPD1-ECD analyte.
For assay [11], the target named is T4, Extracellular domain of human PD1 …. Kind of assay: SPR ProteOn, captured mAb, huPD1-ECD analyte. The source holds these as a separate data set.
Method: as §1
STDEV were calculated for 3 or more replicates generated for human and cyno proteins. If less than 3 replicates were calculated, RANGE is indicated. RANGE is defined as the low and high values for the replicates tested. For samples without RANGE or STDEV, only one experiment was performed

Where two headings read alike, the source gives them in different places.

T4 sequence (Q15116 25-169 limits assumed): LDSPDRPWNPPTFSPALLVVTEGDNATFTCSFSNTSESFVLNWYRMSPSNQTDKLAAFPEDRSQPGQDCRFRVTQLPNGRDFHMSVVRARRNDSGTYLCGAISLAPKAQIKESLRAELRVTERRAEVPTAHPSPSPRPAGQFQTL
T2 sequence (Q15116 25-288 limits assumed): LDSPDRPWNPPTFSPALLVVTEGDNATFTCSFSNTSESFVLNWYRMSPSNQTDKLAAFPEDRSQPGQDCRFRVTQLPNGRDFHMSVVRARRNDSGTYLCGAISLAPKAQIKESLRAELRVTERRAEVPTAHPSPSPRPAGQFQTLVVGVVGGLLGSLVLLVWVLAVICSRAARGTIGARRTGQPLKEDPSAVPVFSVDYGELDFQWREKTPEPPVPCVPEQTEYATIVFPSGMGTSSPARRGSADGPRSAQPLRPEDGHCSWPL

B1: TM3B113 (antibody, V domains shown)
VH: EVQLLESGGGLVQPGGSLRLSCAASGFTFSDYWMSWVRQAPGKGLEWVSVIKYSGGSKYYADSVKGRFTISRDNSKNTLYLQMNSLRAEDTAVYYCAKELEGVFDYWGQGTLVTVSS
VL: EIVLTQSPGTLSLSPGERATLSCRASQSVSNSTLAWYQQKPGQAPRLLIYTASSRATGIPDRFSGSGSGTDFTLTISRLEPEDFAVYYCQQSYTSPWTFGQGTKVEIK
notes: also called TM3H65/TM3L12
As to B1, in [1], the “Galectin 9 Inhibition, % inhibition (maximal)” value was 75.6%.

B2: PD1B244 (antibody, human IgG4 S228P, kappa, V domains shown)
VH: QVQLVQSGAEVKKPGSSVKVSCKASGGTFSSYAISWVRQAPGQGLEWMGGIIPIFDTANYAQKFQGRVTITADESTSTAYMELSSLRSEDTAVYYCARPGLAAAYDTGSLDYWGQGTLVTVSS
VL: EIVLTQSPATLSLSPGERATLSCRASQSVRSYLAWYQQKPGQAPRLLIYDASNRATGIPARFSGSGSGTDFTLTISSLEPEDFAVYYCQQRNYWPLTFGQGTKVEIKR
Consider B2, for which, in [2], the “CMV EC50, nM (IFN-γ induction)” value was 0.03 nM and the “MLR EC50, nM (IFN-γ induction)” value stood at 0.08 nM.

B3: PD1B184 (antibody, human IgG2, kappa, V domains shown)
VH: QVQLVQSGAEVKKPGSSVKVSCKASGGTFSSYAISWVRQAPGQGLEWMGGIIPIFGTANYAQKFQGRVTITADESTSTAYMELSSLRSEDTAVYYCARPGLAAAYDTGSLDYWGQGTLVTVSS
VL: EIVLTQSPATLSLSPGERATLSCRASQSVRNYLAWYQQKPGQAPRLLIHDASNRATGIPARFSGSGSGTDFTLTISSLEPEDFAVYYCQQRNYWPLTFGQGTKVEIKR
notes: IgG2sigma/kappa; VH 43, VL 50; also called PD1H3/PD1L128
By EC50 is commonly meant the concentration that produces a half-maximal response. Read a high EC50 as a need for much substance. A word on the Kd: it is the constant that tells how readily two partners part at equilibrium. What is called koff is the rate constant with which the complex falls apart. By kon is commonly meant the rate constant with which the complex forms. For B3, the EC50 in assay [3] amounted to 0.08 µg/mL. Also, the Kd in [4] was 9.5 nM; in assay [5], 11.5 nM; in assay [7], 11.4 nM; in assay [9], 14.1 nM. Moreover, the koff in [4] amounted to 0.00255 s⁻¹; in assay [5], 0.00274 s⁻¹; in assay [6] it was 0.00292 s⁻¹; in assay [7], 0.00509 s⁻¹. The kon was 208000 M⁻¹ s⁻¹ in assay [4], 238000 M⁻¹ s⁻¹ in assay [5], 268000 M⁻¹ s⁻¹ in assay [6] and 445000 M⁻¹ s⁻¹ in assay [7]. The “percentage ligand not blocked at 1 µg/ml” value in [8] came out at 4%. For the same molecule, the “percentage ligand not blocked at 10 µg/ml” value in assay [8] was 4%.

B4: PD1B185 (antibody, human IgG2, kappa, V domains shown)
VH: QVQLVQSGAEVKKPGSSVKVSCKASGGTFSSYAISWVRQAPGQGLEWMGGIIPIFGTANYAQKFQGRVTITADESTSTAYMELSSLRSEDTAVYYCARPGLAAAYDTGSLDYWGQGTLVTVSS
VL: EIVLTQSPATLSLSPGERATLSCRASQSVRNYLAWYQQKPGQAPRLLIYDASDRATGIPARFSGSGSGTDFTLTISSLEPEDFAVYYCQQRWNWPLTFGQGTKVEIKR
notes: IgG2sigma/kappa; VH 43, VL 55; also called PD1H3/PD1L132
Molecule B4 showed an EC50 in [3] of 0.09 µg/mL. The Kd in assay [4] came out at 27.5 nM; in [5], 30.5 nM; in assay [7], 13.1 nM; in assay [9], 34.1 nM. The koff was found to be 0.00938 s⁻¹ in assay [4], 0.00947 s⁻¹ in assay [5], 0.00765 s⁻¹ in [7] and 0.00955 s⁻¹ in assay [9]. Moreover, the on-rate (kon) in [4] turned out to be 280000 M⁻¹ s⁻¹; in [5], 311000 M⁻¹ s⁻¹; in [6] it was 343000 M⁻¹ s⁻¹; in assay [7] it was 585000 M⁻¹ s⁻¹. Besides, the “percentage ligand not blocked at 1 µg/ml” value in assay [8] is 8%. The “percentage ligand not blocked at 10 µg/ml” value in assay [8] is 5%.

B5: PD1B192 (antibody, human IgG2, kappa, V domains shown)
VH: QVQLVQSGAEVKKPGSSVKVSCKASGGTFSSYAISWVRQAPGQGLEWMGGIIPIFGTANYAQKFQGRVTITADESTSTAYMELSSLRSEDTAVYYCARPGLAAAYDTGSLDYWGQGTLVTVSS
VL: EIVLTQSPATLSLSPGERATLSCRASQSVDSYLAWYQQKPGQAPRLLIHDASNRATGIPARFSGSGSGTDFTLTISSLEPEDFAVYYCQQRNYWPLTFGQGTKVEIKR
notes: IgG2sigma/kappa; VH 43, VL 57; also called PD1H3/PD1L133
With B5, in assay [3], the EC50 amounted to 0.06 µg/mL. For the same molecule, the values for the dissociation constant Kd in [4], in [5] and in assay [9] were 15 nM, 16.4 nM and 18 nM, respectively. Moreover, the koff in assay [4] came out at 0.00486 s⁻¹; in assay [5], 0.00504 s⁻¹; in assay [6], 0.00522 s⁻¹; in assay [7], 0.0117 s⁻¹. Besides, the kon in assay [4] was 290000 M⁻¹ s⁻¹; in assay [5], 307000 M⁻¹ s⁻¹; in assay [6] it was 324000 M⁻¹ s⁻¹; in [7], 541000 M⁻¹ s⁻¹. Also, in assay [8], the “percentage ligand not blocked at 1 µg/ml” value was found to be 5%. Also, the “percentage ligand not blocked at 10 µg/ml” value in assay [8] amounted to 5%.

B6: TM3B193 (antibody, V domains shown)
VH: EVQLQQSGAELVKPGASVKLSCTASGFHIKDTYLHWVKQRPEQGLEWIGRIDPTNGNIKYDPKFQGKATITSDTSSNTAYLQLSSLTSEDTAVYYCARPYYGFFDYWGQGTTLTVSS
VL: DIVMTQSHKFMSTSVGDRVSITCKASQDVNTAVAWYQQKPGQSPKLLIYSATYRYTGVPDRFTGSGSGTDFTFTISSVQAEDLAVYYCQQHYSTPYTFGSGTKLEIK
notes: Mouse-derived variable domains; also called TM3H99/TM3L52
For the molecule B6, the “Galectin 9 Inhibition, % inhibition (maximal)” value in assay [1] came to 47.4%.

B7: PD1B199 (antibody, V domains shown)
VH: QVQLVQSGAEVKKPGSSVKVSCKASGGTFSDYVISWVRQAPGQGLEWMGGIIPIYGTANYAQKFQGRVTITADESTSTAYMELSSLRSEDTAVYYCARGTLDRTGHLDYWGQGTLVTVSS
VL: EIVLTQSPATLSLSPGERATLSCRASQSVSSYLAWYQQKPGQAPRLLIHDASTRATGIPARFSGSGSGTDFTLTISSLEPEDFAVYYCQQRNYWPLTFGQGTKVEIK
notes: also called PD1H164/PD1L86
In assay [10], B7 gave a Kd of 0.52 nM, a koff of 0.000177 s⁻¹ and a kon of 340000 M⁻¹ s⁻¹. In [11], this molecule showed a dissociation constant Kd of 0.6 nM, an off-rate (koff) of 0.000564 s⁻¹ and a kon of 933000 M⁻¹ s⁻¹. Besides, the “MLR EC50, nM (IFN-γ induction)” value in assay [2] came out at 0.63 nM.

B8: PD1B196 (antibody, V domains shown)
VH: QVQLVQSGAEVKKPGSSVKVSCKASGGTFSSYAISWVRQAPGQGLEWMGGIIPIFDTANYAQKFQGRVTITADESTSTAYMELSSLRSEDTAVYYCARPGLAAAYDTGSLDYWGQGTLVTVSS
VL: EIVLTQSPATLSLSPGERATLSCRASQSVRSYLAWYQQKPGQAPRLLIYDASNRATGIPARFSGSGSGTDFTLTISSLEPEDFAVYYCQQRNYWPLTFGQGTKVEIK
notes: also called PD1H170/PD1L148
B8: in assay [10], the Kd stood at 0.58 nM, the koff came to 0.000176 s⁻¹ and the kon worked out at 303000 M⁻¹ s⁻¹. In assay [11], this molecule registered a Kd of 0.41 nM, a koff of 0.000366 s⁻¹ and a kon of 883000 M⁻¹ s⁻¹. In addition, in [2], the “CMV EC50, nM (IFN-γ induction)” value was found to be 0.31 nM and the “MLR EC50, nM (IFN-γ induction)” value worked out at 0.14 nM.

B9: PD1B200 (antibody, V domains shown)
VH: QVQLVQSGAEVKKPGSSVKVSCKASGGTFSDYVISWVRQAPGQGLEWMGGIIPIYGTANYAQKFQGRVTITADESTSTAYMELSSLRSEDTAVYYCARGTLDRTGHLDYWGQGTLVTVSS
VL: EIVLTQSPATLSLSPGERATLSCRASQSVDNYLAWYQQKPGQAPRLLIHDASNRATGIPARFSGSGSGTDFTLTISSLEPEDFAVYYCQQRSAWPLTFGQGTKVEIK
notes: also called PD1H164/PD1L168
As for B9, in [10], the Kd is 1.11 nM, the koff was 0.000422 s⁻¹ and the kon worked out at 380000 M⁻¹ s⁻¹. In assay [11], binding was put at a Kd of 1.17 nM, the koff is 0.00122 s⁻¹ and the kon turned out to be 1.05e+06 M⁻¹ s⁻¹. Further, the “CMV EC50, nM (IFN-γ induction)” value in assay [2] came to 3.81 nM.

B10: PD1B201 (antibody, V domains shown)
VH: QVQLVQSGAEVKKPGSSVKVSCKASGGTFSDYVISWVRQAPGQGLEWMGGIIPIYGTANYAQKFQGRVTITADESTSTAYMELSSLRSEDTAVYYCARGTLDRTGHLDYWGQGTLVTVSS
VL: EIVLTQSPATLSLSPGERATLSCRASQSVSNYLAWYQQKPGQAPRLLIYDASNRATGIPARFSGSGSGTDFTLTISSLEPEDFAVYYCQQRNYWPLTFGQGTKVEIK
notes: also called PD1H164/PD1L190
With B10, in assay [10], the Kd is 0.96 nM, the koff was found to be 0.000293 s⁻¹ and the kon stood at 305000 M⁻¹ s⁻¹. In assay [11], this molecule showed a Kd of 1.12 nM, a koff of 0.000957 s⁻¹ and a kon of 858000 M⁻¹ s⁻¹. Further, the “CMV EC50, nM (IFN-γ induction)” value in [2] stood at 2.6 nM.

B11: PD1B243 (antibody, human IgG4 S228P, kappa, V domains shown)
VH: EVQLVESGGGLVQPGGSLRLSCAASGFAFSRYDMSWVRQAPGKGLESVAYISGGGANTYYLDNVKGRFTISRDNAKNSLYLQMNSLRAEDTAVYYCASPYLSYFDVWGQGTLVTVSS
VL: EIVMTQSPATLSVSPGERATLSCRASQSLSDYLHWYQQKPGQAPRLLIKSASQSISGIPARFSGSGSGTEFTLTISSLQSEDFAVYYCQNGHSFPYTFGQGTKLEIKR
B11: in assay [2], the “CMV EC50, nM (IFN-γ induction)” value was found to be 0.02 nM and the “MLR EC50, nM (IFN-γ induction)” value was found to be 0.07 nM.

The values above are taken from patent publication US20210277110A1 (Janssen / Centocor, published 2021).
